Experimental data from patent publication US9567399 (dated 2017).
Each block holds one binder with its values, some of them ahead of it.

Key:
human PD-L1 His [1] = target: human PD-L1 His (human); experiment: SPR, 25C
human PD-L1 His [2] = target: human PD-L1 His (human); experiment: SPR, 25C; remark: listed apart in the source
human PD-L1 His [3] = target: human PD-L1 His (human); experiment: ELISA, competition with CD80
human PD-L1 His [4] = target: human PD-L1 His (human); experiment: ELISA, competition with PD-1
human PD-L1 His [5] = target: human PD-L1 His (human); experiment: SPR
TIGIT = target: T1, TIGIT (human, UniProt Q495A1); experiment: SPR
T1 chain: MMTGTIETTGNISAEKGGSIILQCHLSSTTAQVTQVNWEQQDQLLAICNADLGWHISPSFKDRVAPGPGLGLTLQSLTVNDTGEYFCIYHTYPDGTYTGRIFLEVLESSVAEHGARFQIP

human PD-L1 His [6] = target: human PD-L1 His (human); experiment: SPR, 37C
cyno PD-L1 FLAG = cyno PD-L1 FLAG (cynomolgus); experiment: SPR, 37C
human PD-L1 His [7] = target: human PD-L1 His (human); experiment: ELISA, competition with PD-1; remark: listed apart in the source

cyno PD-L1 FLAG (cynomolgus), sequence (chain, as listed by the source): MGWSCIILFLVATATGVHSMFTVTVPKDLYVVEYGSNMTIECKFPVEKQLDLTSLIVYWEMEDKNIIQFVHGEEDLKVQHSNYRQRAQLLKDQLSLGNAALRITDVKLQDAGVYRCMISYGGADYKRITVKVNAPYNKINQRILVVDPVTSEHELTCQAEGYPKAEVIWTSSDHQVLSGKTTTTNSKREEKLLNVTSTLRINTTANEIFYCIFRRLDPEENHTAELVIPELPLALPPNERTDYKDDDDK

- Kd (human PD-L1 His [1]): 0.33 nM
B1: 1D05 VH V to A (antibody, V domains shown)
VH: EVQLVESGGGLVQPGRSLRLSCAASGFTFDDYAMHWVRQAPGKGLEWVSGISWIRTGIGYADSVKGRFTIFRDNAKNSLYLQMNSLRAEDTALYYCAKDMKGSGTYGGWFDTWGQGTLVTVSS
VL: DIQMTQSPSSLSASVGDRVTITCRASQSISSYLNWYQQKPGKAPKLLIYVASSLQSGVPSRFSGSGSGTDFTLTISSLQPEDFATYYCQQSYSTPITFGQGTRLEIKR

- Kd (human PD-L1 His [1]): 0.23 nM
B2: 1D05 VH F to S (antibody, V domains shown)
VH: EVQLVESGGGLVQPGRSLRLSCAASGFTFDDYAMHWVRQVPGKGLEWVSGISWIRTGIGYADSVKGRFTISRDNAKNSLYLQMNSLRAEDTALYYCAKDMKGSGTYGGWFDTWGQGTLVTVSS
VL: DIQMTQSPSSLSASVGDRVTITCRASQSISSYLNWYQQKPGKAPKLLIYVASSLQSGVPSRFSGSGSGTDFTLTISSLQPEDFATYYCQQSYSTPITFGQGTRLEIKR

- Kd (human PD-L1 His [2]): 0.214 nM
B3: 1D05 IC64 (D5-7) (antibody)
chain 1: EVQLVESGGGLVQPGRSLRLSCAASGFTFDDYAMHWVRQVPGKGLEWVSGISWIRTGIGYADSVKGRFTIFRDNAKNSLYLQMNSLRAEDTALYYCAKDMKGSGTYGGWFDTWGQGTLVTVSS
chain 2: not shown

- Kd (human PD-L1 His [2]): 0.195 nM
- IC50 (human PD-L1 His [3]): 1.07 nM
- IC50 (human PD-L1 His [4]): 1.75 nM
B4: 1D05 IC46 (D1-9) (antibody)
chain 1: EVQLVESGGGLVQPGRSLRLSCAASGFTFDDYAMHWVRQVPGKGLEWVSGISWIRTGIGYADSVKGRFTIFRDNAKNSLYLQMNSLRAEDTALYYCAKDMKGSGTYGGWFDTWGQGTLVTVSS
chain 2: not shown

- Kd (human PD-L1 His [5]): 0.27 nM
B5: Bispecific 1, PD-L1 arm (antibody)
chain 1: EVQLVESGGGLVQPGRSLRLSCAASGFTFDDYAMHWVRQVPGKGLEWVSGISWIRTGIGYADSVKGRFTIFRDNAKNSLYLQMNSLRAEDTALYYCAKDMKGSGTYGGWFDTWGQGTLVTVSS
chain 2: not shown

- binding result (TIGIT): no binding
- Kd (human PD-L1 His [5]): 0.35 nM
- Kd (human PD-L1 His [6]): 0.42 nM
- Kd (cyno PD-L1 FLAG): 0.43 nM
B6: 1D05 (antibody)
chain 1: EVQLVESGGGLVQPGRSLRLSCAASGFTFDDYAMHWVRQVPGKGLEWVSGISWIRTGIGYADSVKGRFTIFRDNAKNSLYLQMNSLRAEDTALYYCAKDMKGSGTYGGWFDTWGQGTLVTVSS
chain 2: not shown

- Kd (human PD-L1 His [1]): 0.23 nM
B7: 1D05 VH V to A and F to S (antibody, V domains shown)
VH: EVQLVESGGGLVQPGRSLRLSCAASGFTFDDYAMHWVRQAPGKGLEWVSGISWIRTGIGYADSVKGRFTISRDNAKNSLYLQMNSLRAEDTALYYCAKDMKGSGTYGGWFDTWGQGTLVTVSS
VL: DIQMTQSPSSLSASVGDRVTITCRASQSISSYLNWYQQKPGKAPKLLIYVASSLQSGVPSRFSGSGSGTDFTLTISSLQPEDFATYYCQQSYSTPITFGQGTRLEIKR

- Kd (human PD-L1 His [2]): 0.2 nM
- IC50 (human PD-L1 His [3]): 0.7 nM
B8: 1D05 D9-7 (antibody)
chain 1: EVQLVESGGGLVQPGRSLRLSCAASGFTFDDYAMHWVRQVPGKGLEWVSGISWIRTGIGYADSVKGRFTIFRDNAKNSLYLQMNSLRAEDTALYYCAKDMKGSGTYGGWFDTWGQGTLVTVSS
chain 2: not shown

- Kd (human PD-L1 His [5]): 0.21 nM
B9: Bispecific 2, PD-L1 arm (antibody)
chain 1: EVQLVESGGGLVQPGRSLRLSCAASGFTFDDYAMHWVRQVPGKGLEWVSGISWIRTGIGYADSVKGRFTIFRDNAKNSLYLQMNSLRAEDTALYYCAKDMKGSGTYGGWFDTWGQGTLVTVSS
chain 2: not shown

- Kd (human PD-L1 His [2]): 0.203 nM
B10: 1D05 IC45 (D5-9) (antibody)
chain 1: EVQLVESGGGLVQPGRSLRLSCAASGFTFDDYAMHWVRQVPGKGLEWVSGISWIRTGIGYADSVKGRFTIFRDNAKNSLYLQMNSLRAEDTALYYCAKDMKGSGTYGGWFDTWGQGTLVTVSS
chain 2: not shown

- Kd (human PD-L1 His [1]): 2.8 nM
B11: 1D05 VH V to A, VL V to A (antibody, V domains shown)
VH: EVQLVESGGGLVQPGRSLRLSCAASGFTFDDYAMHWVRQAPGKGLEWVSGISWIRTGIGYADSVKGRFTIFRDNAKNSLYLQMNSLRAEDTALYYCAKDMKGSGTYGGWFDTWGQGTLVTVSS
VL: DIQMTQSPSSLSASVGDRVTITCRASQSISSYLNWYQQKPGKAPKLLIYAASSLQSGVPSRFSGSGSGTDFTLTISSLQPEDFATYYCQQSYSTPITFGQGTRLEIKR

- IC50 (human PD-L1 His [7]): 7.9 nM
- Kd (human PD-L1 His [6]): 0.43 nM
- Kd (cyno PD-L1 FLAG): 0.52 nM
B12: 84G09 (antibody, V domains shown)
VH: EVQLVESGGGLVQPGRSLRLSCAASGFTFDDYAMHWVRQTPGKGLEWVSGISWKSNIIGYADSVKGRFTISRDNAKNSLYLQMNSLRAEDTALYYCARDITGSGSYGWFDPWGQGTLVTVSS
VL: DIQMTQSPSSLSASVGDRVTITCRASQSISSYLNWYQQKPGKAPKPLIYVASSLQSGVPSSFSGSGSGTDFTLTISSLQPEDFATYYCQQSYSNPITFGQGTRLEIK
